{"source": "patent US20150191530A1", "about": "(POMONA RICERCA S R L, published 2015)", "key": {"[1]": {"biological_target": "T1, recombinant JCV VP1 protein (Mad1 strain, Abcam ab74569) (JC virus, Mad1 strain, UniProt P03089 1-354)", "T1 construct": "also called recombinant VP1 from Mad1 strain; VP1/JCV", "T1 sequence (P03089 whole entry)": "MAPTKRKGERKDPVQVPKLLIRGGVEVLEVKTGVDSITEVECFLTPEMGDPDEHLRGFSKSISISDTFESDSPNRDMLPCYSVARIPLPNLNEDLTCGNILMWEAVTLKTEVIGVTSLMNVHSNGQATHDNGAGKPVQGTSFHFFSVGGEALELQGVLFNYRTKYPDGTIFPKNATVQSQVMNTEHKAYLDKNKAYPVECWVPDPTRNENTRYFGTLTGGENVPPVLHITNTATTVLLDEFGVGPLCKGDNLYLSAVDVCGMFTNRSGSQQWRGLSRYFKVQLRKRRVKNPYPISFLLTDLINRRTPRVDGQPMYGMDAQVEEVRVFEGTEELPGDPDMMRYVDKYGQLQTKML", "assay": "method not stated"}, "[2]": {"biological_target": "T2, bovine serum albumin (bovine, UniProt P02769 25-607)", "T2 construct": "also called BSA", "T2 sequence (P02769 25-607 limits assumed)": "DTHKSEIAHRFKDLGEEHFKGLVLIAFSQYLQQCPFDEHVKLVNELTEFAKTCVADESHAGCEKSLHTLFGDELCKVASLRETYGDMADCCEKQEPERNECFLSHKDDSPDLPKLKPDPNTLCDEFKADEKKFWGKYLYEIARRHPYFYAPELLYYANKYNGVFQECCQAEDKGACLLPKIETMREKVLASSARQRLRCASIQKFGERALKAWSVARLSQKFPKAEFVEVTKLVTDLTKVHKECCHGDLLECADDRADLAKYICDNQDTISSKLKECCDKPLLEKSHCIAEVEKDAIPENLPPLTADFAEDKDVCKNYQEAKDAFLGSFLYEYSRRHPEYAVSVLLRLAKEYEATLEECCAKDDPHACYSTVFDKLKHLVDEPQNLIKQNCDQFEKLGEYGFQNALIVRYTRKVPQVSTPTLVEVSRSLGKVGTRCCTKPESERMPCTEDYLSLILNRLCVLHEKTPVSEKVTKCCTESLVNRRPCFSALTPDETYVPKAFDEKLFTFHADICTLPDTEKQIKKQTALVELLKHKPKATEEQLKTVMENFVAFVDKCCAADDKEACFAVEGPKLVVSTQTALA", "assay": "ELISA with crude Fab preparations"}, "[3]": {"biological_target": "T3, recombinant BKV VP1 protein (Abcam ab74567) (BK virus, UniProt P03088 1-362)", "T3 sequence": "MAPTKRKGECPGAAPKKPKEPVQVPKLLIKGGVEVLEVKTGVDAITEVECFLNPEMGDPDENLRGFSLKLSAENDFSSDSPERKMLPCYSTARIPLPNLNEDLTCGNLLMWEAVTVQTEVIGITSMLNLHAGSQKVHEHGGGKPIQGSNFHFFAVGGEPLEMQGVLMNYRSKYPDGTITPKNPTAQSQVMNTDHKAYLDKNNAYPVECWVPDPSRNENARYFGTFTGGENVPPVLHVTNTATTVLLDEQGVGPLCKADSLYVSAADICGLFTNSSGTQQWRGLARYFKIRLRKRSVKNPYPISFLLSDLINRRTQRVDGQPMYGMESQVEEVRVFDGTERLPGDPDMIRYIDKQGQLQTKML", "assay": "ELISA on recombinant JCV VP1 and recombinant BKV VP1"}}}
{"binder": "GRE1 human anti-JCV VP1 monoclonal antibody (Fab, V domains shown, also called IgG GRE; JCV-GRE1) VH: WGPGLVKPSQSLSLTCAVSGASVSSGINYWSWIRLYPGKGLEWIGYVYSSGTTYYNPSLKSRVSISLDTSKNQFSLNLRSVTAADTAVYYCARDRGDSSGSSYYKYYMDVWGKGTTVTVSS VL: not shown", "values": [{"measurement": "Kd", "setting": "[1]", "result": "~1", "unit": "nM"}, {"measurement": "binding result", "setting": "[2]", "result": "no binding"}, {"measurement": "binding result", "setting": "[3]", "result": "no binding"}]}
